B1: SMG5 (parent)
chain: TNPDLIIVCAQSSQSLWNRLSVLL
B2: FEM1B (parent)
chain: TLAALLLNRSESDIRYLLGYVSQQ

Variants of: B1
Experiment: protein stability index of a GFP-peptide fusion (GPS, HEK-293T) (PSI 1-6); higher = more stable
Details: c terminus: a fixed tail appended
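Also: lentivirally expressed fusions sorted by FACS into six bins by GFP to DsRed ratio, PSI derived from sequencing read proportions per bin multiplied by bin number.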

Row | Variant | protein stability index
1 | D4M | 4.85
2 | D4P | 1.95
3 | D4A | 1.33
4 | D4C | 1.05
5 | D4R | 1.94
6 | D4F | 1.71
7 | D4I | 2.79
8 | D4Q | 2.18
9 | D4V | 1.67
10 | D4H | 3.73
11 | D4K | 3.33
12 | D4S | 1.76
13 | D4G | 1.65
14 | I6A | 2.1
15 | I6E | 2.34
16 | I6D | 1.8
17 | I6C | 1.26
18 | L5K | 2.82
19 | L5H | 1.29
20 | L5S | 2.17
21 | L5I | 2.06

Row | Variant | protein stability index
22 | L5C | 3.93
23 | L5T | 2.4
24 | L5Q | 1.73
25 | L5G | 1.54
26 | L5A | 2.09
27 | L5E | 2.95
28 | L5N | 1.63
29 | L5Y | 1.47
30 | L5D | 1.76
31 | L5F | 3.72
32 | L5P | 2.94
33 | L5R | 1.39
34 | L5M | 2.01
35 | L5V | 2.51
36 | L5W | 1.4
37 | P3L | 2.29
38 | P3A | 3.05
39 | P3M | 2.64
40 | P3V | 4.46
41 | P3I | 4.44
42 | P3N | 2.52

Row | Variant | protein stability index
43 | P3W | 3.4
44 | P3Q | 1.71
45 | P3D | 1.77
46 | P3E | 2.57
47 | P3F | 2.18
48 | P3G | 3.64
49 | P3S | 2.5
50 | P3T | 2.8
51 | P3K | 2.48
52 | P3R | 3.61
53 | N2L | 2.99
54 | N2H | 1.88
55 | N2E | 2.26
56 | N2M | 2.18
57 | N2G | 2.66
58 | N2P | 3.06
59 | N2D | 3.01
60 | N2C | 2.8
61 | N2K | 2.66
62 | N2V | 2.06
63 | N2Y | 1.77

Row | Variant | protein stability index
64 | N2W | 3.06
65 | N2T | 4.22
66 | N2I | 2.22
67 | N2R | 2.88
68 | T1M | 2.97
69 | T1P | 1.98
70 | T1Y | 1.66
71 | T1V | 2.84
72 | T1W | 2.35
73 | T1F | 2.28
74 | T1R | 1.37
75 | T1A | 1.38
76 | T1D | 1.57
77 | T1L | 2.36
78 | T1N | 3.25
79 | T1H | 2.44
80 | T1I | 3.34
81 | T1Q | 3.39
82 | T1K | 4.48

Variants of: B2
Experiment: as above
Details: c terminus: a fixed tail appended

Row | Variant | protein stability index
83 | Q24F | 2.26
84 | Q24H | 2.75
85 | Q24E | 2.39
86 | Q24K | 4.32
87 | Q24S | 2.18
88 | Q24T | 3.19
89 | Q24A | 2.5
90 | Q24C | 3.34
91 | Q24Y | 2.22
92 | Q24P | 2.31
93 | Q24G | 2.68
94 | Q24V | 1.75
95 | Q24M | 1.61
96 | Q24W | 2.52
97 | Q24N | 2.6
98 | Q24D | 2
99 | Q24I | 3.41
100 | Q23K | 2.87
101 | Q23I | 2.75
102 | Q23H | 2.27
103 | Q23F | 2.3
104 | Q23V | 2.77
105 | Q23E | 3.21
106 | Q23M | 3.68
107 | Q23G | 2.58
108 | Q23R | 2.6

Row | Variant | protein stability index
109 | Q23A | 2.35
110 | Q23L | 1.09
111 | Q23Y | 2.1
112 | Q23C | 3.58
113 | Q23D | 2.67
114 | Q23P | 1.36
115 | Q23T | 3.07
116 | Q23S | 2.92
117 | Q23N | 1.93
118 | R15H | 2.4
119 | R15Q | 1.61
120 | R15Y | 3.31
121 | R15A | 2.31
122 | R15P | 2.03
123 | R15E | 2.72
124 | R15I | 2.81
125 | R15N | 2.55
126 | R15S | 3.23
127 | R15V | 1.75
128 | R15L | 3.36
129 | R15D | 2.12
130 | R15F | 3.37
131 | R15C | 2.14
132 | R15T | 3.37
133 | R15M | 3.35
134 | R15K | 2.3

Row | Variant | protein stability index
135 | V21Q | 1.53
136 | V21W | 3.68
137 | V21M | 2.17
138 | V21F | 2.23
139 | V21A | 3.97
140 | V21C | 3.21
141 | V21K | 1.97
142 | V21P | 2.42
143 | V21L | 3.44
144 | V21Y | 2.32
145 | V21S | 3.12
146 | V21R | 1.3
147 | V21T | 1.82
148 | V21I | 2.41
149 | V21G | 1.62
150 | V21E | 2.03
151 | V21N | 3.55
152 | V21D | 2.86
153 | Y20C | 3.38
154 | Y20N | 4.26
155 | Y20L | 2.66
156 | Y20G | 2.25
157 | Y20H | 2.13
158 | Y20T | 1.97
159 | Y20M | 4.22
160 | Y20W | 2.52

Row | Variant | protein stability index
161 | Y20Q | 3
162 | Y20F | 1.29
163 | Y20E | 4.31
164 | Y20D | 3.08
165 | Y20P | 2.58
166 | Y20I | 3.01
167 | Y20K | 2.46
168 | Y20V | 3.32
169 | Y20R | 3.14
170 | Y20A | 2.91
171 | S12T | 2.18
172 | S12L | 2.36
173 | S12N | 2.79
174 | S12R | 2.36
175 | S12H | 2.48
176 | S12K | 3.14
177 | S12V | 1.73
178 | S12F | 2.89
179 | S12I | 3.15
180 | S12W | 3.62
181 | S12Y | 2.93
182 | S12G | 3.69
183 | S12Q | 2.69
184 | S12E | 3.18
185 | S12D | 2.71
186 | S12P | 3.27

Row | Variant | protein stability index
187 | S12A | 2.19
188 | S12M | 2.33
189 | S22A | 3.04
190 | S22C | 2.87
191 | S22Y | 2.7
192 | S22R | 2.37
193 | S22K | 2.77
194 | S22I | 2.42
195 | S22W | 3.27
196 | S22D | 2.48
197 | S22F | 2.73
198 | S22G | 2.98
199 | S22Q | 3.56
200 | S22P | 2.53
201 | S22V | 2.25
202 | S22T | 2.5
203 | S22N | 1.56
204 | S22H | 2.55
205 | S22L | 3.22
206 | I14D | 1.53
207 | I14H | 3.1
208 | I14C | 2.37
209 | I14M | 3.25
210 | I14Y | 3.54
211 | I14K | 1.96
212 | I14W | 1.77

Row | Variant | protein stability index
213 | I14P | 1.79
214 | I14T | 2.56
215 | I14S | 3
216 | I14Q | 2.35
217 | I14A | 2.58
218 | I14E | 2.85
219 | I14N | 1.74
220 | I14F | 2.7
221 | I14R | 3
222 | I14L | 2.7
223 | I14V | 2.9
224 | I14G | 3.06
225 | L18C | 2.45
226 | L18R | 3.15
227 | L18I | 2.8
228 | L18S | 3.62
229 | L18F | 2.34
230 | L18A | 1.98
231 | L18M | 1.94
232 | L18K | 3.43
233 | L18W | 3.01
234 | L18T | 3.06
235 | L18P | 2.69
236 | L18H | 2.17
237 | L18Q | 3.66
238 | L18E | 1.78

Row | Variant | protein stability index
239 | L18D | 1.64
240 | L18N | 1.73
241 | L18V | 1.67
242 | L18Y | 3.1
243 | D13H | 3.21
244 | D13W | 4.04
245 | D13P | 2.13
246 | D13C | 3.94
247 | D13G | 2.81
248 | D13L | 3.62
249 | D13K | 2.79
250 | D13R | 2.72
251 | D13Y | 3.38
252 | D13I | 3.07
253 | D13T | 2.88
254 | D13F | 1.76
255 | D13V | 3.19
256 | D13A | 2.76
257 | D13N | 2.77
258 | D13Q | 2.04
259 | D13M | 3.99
260 | D13E | 3.26
261 | D13S | 2.62
262 | E11Q | 1.99
263 | E11H | 3.15
264 | E11M | 3.08

Row | Variant | protein stability index
265 | E11I | 4.17
266 | E11P | 2.08
267 | E11R | 3.13
268 | E11K | 2.83
269 | E11D | 2.49
270 | E11C | 3.04
271 | E11S | 3.2
272 | E11V | 2.96
273 | E11Y | 3.35
274 | E11F | 3.19
275 | E11G | 3.03
276 | E11N | 3.2
277 | E11T | 2.44
278 | E11A | 2.44
279 | E11L | 3.34
280 | E11W | 2.68
281 | G19D | 2.62
282 | G19P | 2.76
283 | G19Y | 3.17
284 | G19I | 3.01
285 | G19A | 2.38
286 | G19L | 2.87
287 | G19M | 2.35
288 | G19Q | 2.11
289 | G19E | 2.37
290 | G19W | 1.26

Row | Variant | protein stability index
291 | G19R | 3.51
292 | G19K | 3.24
293 | G19F | 3.44
294 | G19H | 2.78
295 | G19V | 3.02
296 | G19T | 2.4
297 | G19S | 2.71
298 | G19C | 3.34
299 | L17Q | 3.77
300 | L17P | 1.51
301 | L17N | 2.24
302 | L17T | 2.9
303 | L17D | 1.65
304 | L17V | 2.98
305 | L17G | 2.01
306 | L17C | 3.59
307 | L17W | 2.67
308 | L17I | 1.99
309 | L17M | 3.53
310 | L17K | 1.1
311 | L17S | 1.92
312 | L17R | 2.04
313 | L17H | 1.26
314 | L17E | 3.04
315 | L17F | 2.82
316 | Y16G | 3.2

Row | Variant | protein stability index
317 | Y16K | 2.83
318 | Y16E | 2.06
319 | Y16T | 3.16
320 | Y16V | 2.24
321 | Y16F | 3.75
322 | Y16L | 2.01
323 | Y16Q | 3.05
324 | Y16S | 1.81
325 | Y16W | 4.55
326 | Y16I | 1.57
327 | Y16A | 4.57
328 | Y16R | 2.06
329 | Y16D | 2.38
330 | Y16M | 2.45
331 | Y16H | 1.88
332 | Y16P | 2.95
333 | Y16C | 2.91
334 | Y16N | 2.17
